Data set [1] deals with the molecule itself. The data set is described as follows: SEC; 4C1 at the higher protein concentration (12-mer peak, ~500 kDa); 250 mM NaCl, 50 mM Tris pH8, 1 mM DTT.
Data set [2] concerns the molecule itself. Description: SEC; 4C1 at much lower protein concentration: a center fraction of the 12-mer peak injected again on the same column (hexamer peak, ~250 kDa).

B1: 4C1, core fragment of S. pombe Mcm4 (domain or fragment)
chain: ISDEEVEKIQQVSKRDDIYDILSRSLAPSIYEMDDVKKGLLLQLFGGTNKSFHKGASPRYRGDINILMCGDPSTSKSQILKYVHKIAPRGVYTSGKGSSAVGLTAYITRDQDTKQLVLESGALVLSDGGICCIDEFDKMSDATRSILHEVMEQQTVTVAKAGIITTLNARTSILASANPIGSKYNPDLPVTKNIDLPPTLLSRFDLVYLILDRVDETLDRKLANHIVSMYMEDTPEHATDMEVFSVEFLTSYITYARNNINPVISEEAAKELVNAYVGMRKLGEDVRASEKRITATTRQLESMIRLSEAHAKMHLRNVVEVGDVLEAARLIKTAIKDYATD
For B1, the “stoichiometry N” value in data set [1] came out at 12; in data set [2], 6.

The values above are taken from publication PMC3605359, “Expression, purification and biochemical characterization of Schizosaccharomyces pombe Mcm4, 6 and 7” (BMC Biochemistry, 2013).
